One block for each binder: values may come before it.
Target: glucagon receptor
Test: cell-based or functional assay

In Vitro EC50 (cAMP release, HEK293 cells stably expressing the glucagon receptor, cAMP ELISA): 6.94 nM
B1: PB-721 (peptide)
peptide: HSQGTFTSDYSKYLDSRRAQDFVQWLMNTC
modifications: not fully specified; mPEG-23 KD-ppMAL conjugated to PB-740 (cysteine added after the 29th amino acid)

In Vitro EC50 (cAMP release, HEK293 cells stably expressing the glucagon receptor, cAMP ELISA): 1.45 nM
Binder: HSQGTFTSDYSKYLDSRRAQDFVQWLMNTC [PB-740]

Reference: patent US20190134161A1 (PEGBIO, published 2019)
